Laboratory results reported in publication PMC4074040.

Molecular target: BBPLo, bilin-binding protein from Lonomia obliqua (a variant of lopap) (Lonomia obliqua)
Test: SEC; analytical gel filtration of recombinant, refolded BBPLo on Superdex 75, calibrated with standards (myoglobin, NP2, IPP, BSA); monomers to dimer

BBPLo, bilin-binding protein from Lonomia obliqua (a variant of lopap) (natural protein)
stoichiometry N: 2
